Data published in patent US20080247951A1 (Genentech, published 2008).

How the values were obtained:
[1] = molecular target: T1, human Robo4 expressed endogenously on HUVEC cells (human, UniProt Q8WZ75 28-1007); assay: FACS on HUVEC cells, Alexa 488 detection
T1 sequence: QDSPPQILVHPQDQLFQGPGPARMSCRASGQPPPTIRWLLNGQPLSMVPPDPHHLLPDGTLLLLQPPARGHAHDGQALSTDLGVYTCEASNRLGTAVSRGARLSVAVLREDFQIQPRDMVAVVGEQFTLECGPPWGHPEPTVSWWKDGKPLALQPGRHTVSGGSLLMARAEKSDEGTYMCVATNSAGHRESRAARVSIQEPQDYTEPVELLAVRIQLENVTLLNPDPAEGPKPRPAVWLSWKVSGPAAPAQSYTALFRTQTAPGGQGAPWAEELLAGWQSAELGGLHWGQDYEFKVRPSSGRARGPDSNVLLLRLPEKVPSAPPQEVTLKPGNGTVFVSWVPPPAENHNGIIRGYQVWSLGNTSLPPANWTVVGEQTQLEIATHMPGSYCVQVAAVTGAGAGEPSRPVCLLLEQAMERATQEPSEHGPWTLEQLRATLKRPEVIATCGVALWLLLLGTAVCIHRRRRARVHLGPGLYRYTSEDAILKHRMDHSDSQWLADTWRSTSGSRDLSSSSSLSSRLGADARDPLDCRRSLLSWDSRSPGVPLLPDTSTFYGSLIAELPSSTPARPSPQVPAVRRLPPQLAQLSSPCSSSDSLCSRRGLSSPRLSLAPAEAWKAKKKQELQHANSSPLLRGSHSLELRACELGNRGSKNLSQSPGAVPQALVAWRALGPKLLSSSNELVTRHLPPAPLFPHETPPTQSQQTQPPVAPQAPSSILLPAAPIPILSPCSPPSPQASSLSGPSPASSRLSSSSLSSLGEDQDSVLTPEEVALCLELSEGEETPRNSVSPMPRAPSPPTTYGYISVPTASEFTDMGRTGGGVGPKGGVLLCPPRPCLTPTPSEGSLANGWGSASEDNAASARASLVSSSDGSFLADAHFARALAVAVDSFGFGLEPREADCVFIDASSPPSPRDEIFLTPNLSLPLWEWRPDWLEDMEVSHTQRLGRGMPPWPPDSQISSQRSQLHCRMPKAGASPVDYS

[2] = molecular target: T2, murine Robo4 expressed endogenously on MS1 cells (mouse, UniProt Q8C310 28-1012); assay: FACS on MS1 cells, Alexa 488 detection
T2 construct: whole, on cells
T2 sequence (looked up): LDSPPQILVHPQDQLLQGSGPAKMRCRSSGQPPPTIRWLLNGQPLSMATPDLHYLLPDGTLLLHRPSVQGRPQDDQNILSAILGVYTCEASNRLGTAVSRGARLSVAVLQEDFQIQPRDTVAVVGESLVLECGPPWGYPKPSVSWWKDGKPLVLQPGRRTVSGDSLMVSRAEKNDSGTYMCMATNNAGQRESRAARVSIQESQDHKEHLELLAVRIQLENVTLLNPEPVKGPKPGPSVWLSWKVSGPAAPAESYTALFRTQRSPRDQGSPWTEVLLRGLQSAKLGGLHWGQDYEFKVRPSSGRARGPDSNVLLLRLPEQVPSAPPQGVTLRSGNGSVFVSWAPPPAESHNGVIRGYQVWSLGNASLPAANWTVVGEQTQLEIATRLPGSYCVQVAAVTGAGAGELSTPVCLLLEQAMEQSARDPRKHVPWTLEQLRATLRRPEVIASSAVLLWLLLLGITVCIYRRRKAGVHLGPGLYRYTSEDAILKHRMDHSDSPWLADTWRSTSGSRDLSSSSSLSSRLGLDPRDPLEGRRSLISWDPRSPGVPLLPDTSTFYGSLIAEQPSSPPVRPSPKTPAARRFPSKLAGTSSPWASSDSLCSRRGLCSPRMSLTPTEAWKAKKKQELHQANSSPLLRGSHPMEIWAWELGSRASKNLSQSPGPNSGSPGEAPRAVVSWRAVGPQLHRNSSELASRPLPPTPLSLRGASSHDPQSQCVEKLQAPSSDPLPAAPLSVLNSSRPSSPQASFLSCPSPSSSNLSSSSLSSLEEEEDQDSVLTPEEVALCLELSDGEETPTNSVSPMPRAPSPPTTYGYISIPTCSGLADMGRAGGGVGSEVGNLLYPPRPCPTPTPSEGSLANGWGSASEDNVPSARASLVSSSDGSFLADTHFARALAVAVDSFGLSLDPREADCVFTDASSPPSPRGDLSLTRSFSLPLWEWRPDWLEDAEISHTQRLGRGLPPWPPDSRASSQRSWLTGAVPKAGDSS

- binding result [1]: binds
- binding result [2]: binds
B1: anti-Robo4 antibody YW71.22 (full length) (antibody, V domains shown)
VH: EVQLVESGGGLVQPGGSLRLSCAASGFTINGYYIHWVRQAPGKGLEWVGFIYPAGGDTDYADSVKGRFTISADTSKNTAYLQMNSLRAEDTAVYYCARLIGNKFGWSSYGMDYWGQGTLVTVSS
VL: DIQMTQSPSSLSASVGDRVTITCRASQDVSTAVAWYQQKPGKAPKLLIYSASFLYSGVPSRFSGSGSGTDFTLTISSLQPEDFATTYCQQSYTTPPTFGQGTKVEIKR
notes: also called parent antibody
